# Measurements published in the nanobody polyreactivity screen of Harvey et al. (2022).
# Assay: yeast display, Sf9 membrane polyspecificity reagent, FACS + sequencing; frameworks hold sequencing errors
# Outline: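 In a synthetic yeast display library (Saccharomyces cerevisiae BJ5465), nanobody expression was induced with galactose for 36–48 hours. FACS gates were set low and high (top ~1%) using anti-HA fluorescence for expression and streptavidin fluorescence for binding of the Sf9 membrane reagent. Each polyreactivity label is drawn from the gate of origin.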
row,Sequence,polyreactivity (PSR sort gate)
1,QVQLVESGGGLVQAGGSLRLSCAASGRIFTHNAMGWYRQAHGKERELVAAISYSGVSTYYADSVKGRFTISRDNAKNTVYLQMNSLIPEDTAVYYCARRYWYPDAFYRYDYWGQGTQGTVSS,low polyreactivity
2,QVQLVESGGGLVQAGGSLRLSCAASGRIFTHNAMGWYRQAPGKERELVAAITIGGRTNYADSVKGRFTISRDNAKNTVYLQMNSLKPEDTAVYYCARRYGTWNAYDYWGQGTQVTVSS,low polyreactivity
3,QVQLVESGGGLVQAGGSLRLSCAASGRIFTHYAMGWYRQAPGKERELVAAISRTGGTTNYADSVKGRFTISRDNAKNTVYLQMNSLKPEDTAVYYCAAVGKGAKDYFKYYSLGQGTQVTVSS,high polyreactivity
4,QVQLVESGGGLVQAGGSLRLSCAASGRIFTINAMGWYRQAPGKERELVAAISNSGGRTYADSVKGRFTISRDNAKNTVYLLMNSLKAEDTAVYYCAKRYRFHFWGQGTQVTVSS,low polyreactivity
5,QVQLVESGGGLVQAGGSLRLSCAASGRIFTIYAMGLYRQEPGKERELVASITWRGGRTYYADSVKGRFTISRDNAKNTVYLQMNSLKPEDTAVYYCAAEFYRWGSLSFSYDYWGQGTQVTVSS,low polyreactivity
6,QVQLVESGGGLVQAGGSLRLSCAASGRIFTKNAMGWYRQAPGKERELVAAISWSTSRTYYADSVKGRFTISRDNAKNTVYLQMNSLKPEDTAVYYCAAVYRLRGAFSRGYWGQGTQVTVSS,high polyreactivity
7,QVQLVESGGGLVQAGGSLRLSCAASGRIFTKYAMGWYRQAPGKERELVAAISGSGGPTYYADSVKGRFTISRDNAKNTVYLQINSLKPEDTAVYYCGVPEIFDPKYQNDYWGQGTQVTVSS,low polyreactivity
8,QVQLVESGGGLVQAGGSLRLSCAASGRIFTKYAMGWYRQAPGKERELVAGISSSGGSTYYADSVKGRFTISRDIAKNTVYLQMNSLKPEDTAVYYCAARGYYKYDYWGQGTQVTVSS,high polyreactivity
9,QVQLVESGGGLVQAGGSLRLSCAASGRIFTKYAMGWYRQSPGKERELVAAITTSGGSTYYADSVKGRFTISRDNAKNTVYLQMNSLKPEDTAVYYCAARTYHRYDYWGQGTQVTVSS,high polyreactivity
10,QVQLVESGGGLVQAGGSLRLSCAASGRIFTNNAMGWYREAPGKERELVAAISKRGGSTYYADSVKGRFTISRDNAKNTVYLQMNSLKPEDTAVYYCNAREYIHWRGALGLFGSWGQGTQVTVSS,high polyreactivity
11,QVQLVESGGGLVQAGGSLRLSCAASGRIFTPNAMGWYRQAPGKERELVAAITWSGDNTYADSVKGRFTISRDNAKNTVYLQMNSLKPEDTAVYYCAAAYGYGHKKYGYWGQGTQVTVSS,low polyreactivity
12,QVQLVESGGGLVQAGGSLRLSCAASGRIFTPNAMGWYRQPPGKERELVAAITWSGDNTYADSVKGRFTISRDNAKNTVYLQMNILKPEDTAVYYCAAAYGYGHKKYGYWGQGTQVTVSS,low polyreactivity
13,QVQLVESGGGLVQAGGSLRLSCAASGRIFTPYVMGWYIQAPGKERELVADINLSGDSTSYADSVKGRFTISRDNAKNTVYLQMNSLKPEDTAVYYCAADFWLVSFQWDFEYDYWGQGTHVTVSS,low polyreactivity
14,QVQLVESGGGLVQAGGSLRLSCAASGRIFTRYAMGWYRQAPGKERELVATITKSGGSTYYADSVKGRFTISRDNAKNTVSLQMNSQKPDDTAVYYCAADSWWTYQYDYWGQGTQVTVSS,low polyreactivity
15,QVQLVESGGGLVQAGGSLRLSCAASGRIFTRYAMGWYRQAPGKERELVAVITRSGGSTYYADSVKGRFTISRDNAKNTVYLQMNSLKPEDTAVYYCNVDETGVLVAYSFDYWGQGTQVTVSS,low polyreactivity
16,QVQLVESGGGLVQAGGSLRLSCAASGRIFTRYVMGWSRQAPGKERELVAAISYRGGRTYYADSVKGRFTISRDNAKNTVYLQMNSLKPEDTAVYYCAVDYTLADVIYDYWGQGTQVTVSS,high polyreactivity
17,QVQLVESGGGLVQAGGSLRLSCAASGRIFTSNAMAWYRQAPGKERELVAAISASGGRTYYADSVKGRFTISRDNAKNTVYLQMNSLKPEDTAVYYCAALSTGRLSDHGYWGQGTQVTVSS,high polyreactivity
18,QVQLVESGGGLVQAGGSLRLSCAASGRIFTSYAKGWYRQAPGKERELVAAISRSGGSTYYADSVKGRFTISRDNAKNTVYLQMHSLKPEDTALYYCAKARVVAGYDYWGQGTQVTVSS,high polyreactivity
19,QVQLVESGGGLVQAGGSLRLSCAASGRIFTTYALGWYRQAPGKERELVATITSGGDTSYADSVKGRFTISRDNAKNTVYLQMNSLKPEDTAVYYCNVGASLDQCSIPFEGYYYWGQGTQVTVSS,low polyreactivity
20,QVQLVESGGGLVQAGGSLRLSCAASGRIFTTYAMGWYRQAPGKERELVAAISRSGGSTYYADSVKGRFTISRDNAKNTVYLQMKSLKPEDTAVYYCAAVPTSNSFRSSFYYWGQGTQVTVSS,high polyreactivity
21,QVQLVESGGGLVQAGGSLRLSCAASGRIFTTYAMGWYRQAPGKERELVAAISRSGGSTYYADSVKGRFTISRDNAKNTVYLQMNSLKPEDTAVYYCAAVPTSNSFRSSFYYWGQGTEVTVSS,high polyreactivity
22,QVQLVESGGGLVQAGGSLRLSCAASGRIFTTYAMGWYSRGPGKERELVAAISQNGGSTYYADSVKGRFTISRDNAKNTVYLQMNSLKPEDTAVYYCNAGPAGYYDYDYRGQGTQVTVSS,low polyreactivity

row,Sequence,polyreactivity (PSR sort gate)
1,QVQLVESGGGLVQAGGSLRLSCAASGRIFTTYTMGWYRQAPGKERELVAAISKRGGSTYYADSVKGRFTISRDNAKNTVYLQMNSLKPEDTAVYYCAAVGGRFFAPYIWSVDSYDYWGQGTQVTVSS,high polyreactivity
2,QVQLVESGGGLVQAGGSLRLSCAASGRIFTTYVMGWYRQAPGKEWELVAAISARGSTYYADSVKGRFTISRDNAKNTVYLQMNSLKPEDTEVYYCAAGPRLPVYYGYPRATYNDWGQGTQVTVSS,low polyreactivity
3,QVQLVESGGGLVQAGGSLRLSCAASGRIFTVNAMGWYRQAPGKESELVASIRYRGSSTYYADSVKGRFTISRDNAKNTVYLQMNSLKPEDTAVYYCAAVVRQYRPPGLYDYWGQGTQVTVSS,high polyreactivity
4,QVQLVESGGGLVQAGGSLRLSCAASGRIFTVYAMGWYRQAPGKERELVAAIDWSDGSTYYADSVKGRFTISRDNAKNTVYLQMNCLKPEVTAVYYCAAETYWVVEYDYWGQGTQVTVSS,high polyreactivity
5,QVQLVESGGGLVQAGGSLRLSCAASGRIFTVYAMGWYRQAPGKERELVAAISGRGGRTYYADSVKGRFTISRDNAKNTVYLQMNSLKPEDTAGYYCNADTLTLSRPDGDIHTVWMDYWGQGTQVTVSS,low polyreactivity
6,QVQLVESGGGLVQAGGSLRLSCAASGRIFTVYAMGWYRQAPGKERELVAAISRGGSTYADSVKGRFTISRDNAKNTVYLQMNSLKPEDTAVYYCAAVNFRKGEDYWGQGTQVTVSS,high polyreactivity
7,QVQLVESGGGLVQAGGSLRLSCAASGRIFTWSTMGWYRQAAGTERELVAAINRGGSTTYADSVKGRFTISRDNAKNTVYLQMNSLKPEDTAVYYCAAYRSTSRVYSNWRGYDYWGQGTQVTVSS,high polyreactivity
8,QVQLVESGGGLVQAGGSLRLSCAASGRIFTYNAMGWYRQAPGKERELVAAISYSGGRTDYADSVKGRFTISRDNAKNTVYLQMHSLKPEDTAVYYCAARPGPYWTVTFRSPKYYYWGQGTQVTVSS,high polyreactivity
9,QVQLVESGGGLVQAGGSLRLSCAASGRIFTYNAMGWYRQAPGKERELVAAITYRGSSTYYADSVKGRFTISRDNAKNTVYLQMNSLKPEDTAVYYCAAPRLIRFVTYYSWGQGTQVTVSS,high polyreactivity
10,QVQLVESGGGLVQAGGSLRLSCAASGRIFTYYAMGWYRQAPGKERELVAAINWGVVTTYYADSVKGRFTISRDNAKNTVYLQMNSLKPEDSAVYYCAADWFAANYYVNPVSALYYWGQGTQVTVSS,low polyreactivity
11,QVQLVESGGGLVQAGGSLRLSCAASGRIFTYYGMGWSRQAPGKEMELVAAISSSGDSTFYADSVKGRFTISRDNAKNTVYLQMNSLKPEDTAVYYCAADYYYVWYDYWGQGTQVTVSS,low polyreactivity
12,QVQLVESGGGLVQAGGSLRLSCAASGRIFTYYPMGWYRQAPGKQRELVAAISWNGDSTYYADSVKGRFTISRDNAKNTVYLQMNSLKPEDTAVYYCIADSFTGYDYWGQGTQVTVSS,low polyreactivity
13,QVQLVESGGGLVQAGGSLRLSCAASGRIFTYYTMGWYRQAPGKERELVAAISWSGGRTYYADSVKGRFTISRDNAKNTVYLQMNSLKPEDTAVYYCARLQDSRESPWRGYYWGQGTQVTVSS,high polyreactivity
14,QVQLVESGGGLVQAGGSLRLSCAASGRIFTYYVMGWYRQAPWKERELVAAISYGGGSTYYADSVKGRFTISRDNAKNTVYLQMNSLKPEDTAGYYCAAEDGYRKMDYWGQGTQVTVSS,low polyreactivity
15,QVQLVESGGGLVQAGGSLRLSCAASGRIFVAYAMGWYRQAPGKERELVADIDYIDGSTYYADSVKGRFTISRDNAKNTVYLQMNSLKPEDTAVYYCAVDSLYYAGYYDYWGQGTQVTVSS,high polyreactivity
16,QVQLVESGGGLVQAGGSLRLSCAASGRIFVDNDMGWYRQAPGKERELVAAISGNGGNTNYADSVKGRFTISRDNAKNTVYFQMNSLKPEDTAVYYCAATYPVGHVYRYDYWGQGTQVTVSS,low polyreactivity
17,QVQLVESGGGLVQAGGSLRLSCAASGRIFVDNDMGWYRQAPGKERELVAAISGNGGNTNYADSVKGRFTISRDNAKNTVYLQMNSLKPEDTAVYYCAATYPVGHVYRYDYWGQGTQVTVSS,low polyreactivity
18,QVQLVESGGGLVQAGGSLRLSCAASGRIFVFYAMGWYRQAPGKERELVAAITSGGSTYYADSVKGRFTISRDNAKNTVYLQMNSLKPEDTAVYYCAARGRVSWSTYWYEYWGQGTQVTVSS,high polyreactivity
19,QVQLVESGGGLVQAGGSLRLSCAASGRIFVGNTMGWYRQAPGKERELVAAITYRGGSTYYADSVKGRFTISRDNAKNTVYLQMNSLKPEDTAVYYCATAGYWGGDYWGQGTQVNVSS,low polyreactivity
20,QVQLVESGGGLVQAGGSLRLSCAASGRIFVGYAMGWFRQAPGKERELVAAINRSGSSTYYADSVNGRFTISRDNAKNTVYLQMNSLKPEDTAVYYCAARYYPRVRYATYYGSYYWGQGTQVTVSS,high polyreactivity
21,QVQLVESGGGLVQAGGSLRLSCAASGRIFVGYAMGWSRQAPRNERELVAAISDRGGNTYYADSVKGRFTISRDNAKNTVYFQMNSLKPEDTAVYYCAKEVRWWYGYWGQGTQVTVSS,high polyreactivity
